{
  "source": "paper PMC12649849",
  "biological_target": "Protein A on the ProA BLI sensor (Staphylococcus aureus) (UniProt P38507)",
  "test": "BLI",
  "data": [
    {"substance": "ChromPure mouse IgG (whole molecule) (antibody)", "values": [
      {"measurement": "koff", "value": 0.00121, "unit": "s⁻¹"},
      {"measurement": "kon", "value": 92500, "unit": "M⁻¹ s⁻¹"}
    ]}
  ]
}
